Literature values as cited in paper PMC12580572.

What was measured:
[1] = target: GluK2 (Rattus norvegicus) (UniProt P42260)
[2] = target: GluK5 (Rattus norvegicus) (UniProt Q63273)
Sequence of UniProt Q63273 (Q63273 15-979): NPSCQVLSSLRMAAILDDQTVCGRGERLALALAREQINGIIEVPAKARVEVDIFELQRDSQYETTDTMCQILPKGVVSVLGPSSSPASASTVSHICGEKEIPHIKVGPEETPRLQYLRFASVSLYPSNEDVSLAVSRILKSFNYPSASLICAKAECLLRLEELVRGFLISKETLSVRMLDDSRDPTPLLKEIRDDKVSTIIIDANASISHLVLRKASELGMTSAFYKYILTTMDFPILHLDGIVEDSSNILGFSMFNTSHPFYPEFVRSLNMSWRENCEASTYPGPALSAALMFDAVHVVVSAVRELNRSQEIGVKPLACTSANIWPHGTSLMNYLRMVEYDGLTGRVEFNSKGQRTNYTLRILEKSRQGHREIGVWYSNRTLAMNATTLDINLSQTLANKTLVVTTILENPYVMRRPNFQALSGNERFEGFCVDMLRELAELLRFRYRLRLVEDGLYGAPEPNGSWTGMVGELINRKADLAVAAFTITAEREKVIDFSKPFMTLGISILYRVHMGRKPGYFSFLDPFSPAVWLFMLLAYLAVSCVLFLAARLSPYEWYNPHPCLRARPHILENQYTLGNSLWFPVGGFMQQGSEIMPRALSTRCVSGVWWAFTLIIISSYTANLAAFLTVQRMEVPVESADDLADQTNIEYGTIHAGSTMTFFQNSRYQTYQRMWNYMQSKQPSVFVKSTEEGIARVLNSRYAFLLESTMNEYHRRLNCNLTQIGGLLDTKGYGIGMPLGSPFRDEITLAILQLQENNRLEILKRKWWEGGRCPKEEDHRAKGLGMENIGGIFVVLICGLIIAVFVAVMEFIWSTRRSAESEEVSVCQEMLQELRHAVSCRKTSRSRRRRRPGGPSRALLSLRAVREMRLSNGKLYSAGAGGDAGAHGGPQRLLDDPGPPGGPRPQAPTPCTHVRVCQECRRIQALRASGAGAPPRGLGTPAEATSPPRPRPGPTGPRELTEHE

Kd [1]: 0.35 µM | Kd [2]: 0.077 µM
Substance: GluK2 (from UniProt P42260)
